Measured values reported in publication PMC10243088.

Columns and labels:
[1] = target: ferroportin (human (endogenous in HEK 293 and iPSC-derived ECs)) (UniProt Q9NP59)
[2] = target: ferroportin (human (endogenous in HEK 293 and iPSC-derived ECs)) (UniProt Q9NP59); remark: listed apart in the source
[3] = target: ferroportin (human (endogenous in HEK 293 and iPSC-derived ECs)) (UniProt Q9NP59); remark: listed apart in the source

Sequence of UniProt Q9NP59 (Q9NP59 whole entry): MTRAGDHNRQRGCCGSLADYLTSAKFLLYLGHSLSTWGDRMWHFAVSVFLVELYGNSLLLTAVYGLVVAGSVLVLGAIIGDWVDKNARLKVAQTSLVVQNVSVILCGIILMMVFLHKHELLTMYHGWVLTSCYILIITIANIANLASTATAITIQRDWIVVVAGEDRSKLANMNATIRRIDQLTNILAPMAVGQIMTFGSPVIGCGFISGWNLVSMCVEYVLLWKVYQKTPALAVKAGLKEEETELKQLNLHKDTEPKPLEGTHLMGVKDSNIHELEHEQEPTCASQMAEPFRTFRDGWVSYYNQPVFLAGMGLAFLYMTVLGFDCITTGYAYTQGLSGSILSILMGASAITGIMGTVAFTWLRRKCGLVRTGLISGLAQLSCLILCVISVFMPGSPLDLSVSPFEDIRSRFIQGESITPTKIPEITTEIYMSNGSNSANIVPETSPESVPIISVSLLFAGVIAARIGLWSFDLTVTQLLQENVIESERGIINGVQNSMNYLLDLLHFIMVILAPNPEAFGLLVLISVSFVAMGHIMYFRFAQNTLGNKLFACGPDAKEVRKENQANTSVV

Row | Substance | membrane Fpn in HEK 293 cells with 500 nM hepcidin, 5-60 min (membrane protein isolation, immunoblot), compared to holo-Tf treatment [1] | membrane Fpn in HEK 293 cells with 0.25 μM holo-Tf, 5-60 min (membrane protein isolation, immunoblot), compared to control [1] | Fpn protein level in iPSC-derived ECs with 0.25 μM holo-Tf over time, intervals of 1 h up to 5 h (immunoblot) [2] | Fpn protein level in iPSC-derived ECs after 8 h with increasing concentrations of holo-Tf in the basal chamber (immunoblot), from 0.1 μM [3]
1 | hepcidin (peptide) | 70% |  |  | 
2 | holo-transferrin (iron bound transferrin) (from UniProt P02787 20-698) (natural protein) |  | 20% | 50% | 50%
